The experiment deals with activation domain of SRC-3 (ACTR), labelled with AlexaFluor 647, with a ssDNA handle. The experiment in a line: FRET or BRET. Background: BRET reads energy transfer from a luciferase to a nearby fluorophore.

As for “nuclear-coactivator binding domain of the CBP/p300 transcription factor (NCBD), labelled with LD750 (domain or fragment)”, the most likely lifetime of the intermediate state (transient encounter complex), τi was 96 μs.

Values taken from doi:10.1101/2023.12.08.570755.
